In series [1] the test system is HeLa Kyoto. The experiment in a line: melting temperature (median over replicates), in situ; higher = more thermally stable.
The subject of series [2] is HeLa Kyoto. The series can be described thus: solubility in G1/S (NP-40 vs SDS abundance) (log2 ratio); higher = more soluble. Conditions: cell cycle stage: G1/S.
Series [3] relates to HeLa Kyoto. The series can be described thus: solubility change mitosis vs G1/S (difference of NP-40 vs SDS log2 ratios) (log2 ratio difference); higher = more soluble in mitosis.
Series [4] concerns HeLa Kyoto. The experiment in a line: thermal stability score vs G1/S (z-score of summed log2 fold changes over temperatures); higher = more thermally stable than in G1/S.
Where [5] appears, read: cell cycle stage: early G1 (4.5 h after nocodazole release).
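For melting temperature (median over replicates), in situ in this document: HeLa Kyoto cells synchronized by double thymidine or nocodazole block, proteins quantified by TMT10plex mass spectrometry, three independent biological replicates.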
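For solubility change mitosis vs G1/S (difference of NP-40 vs SDS log2 ratios) in this document: synchronized HeLa Kyoto cells (double thymidine block for G1/S, nocodazole release for mitosis), protein amounts in NP-40 versus SDS lysates quantified by mass spectrometry, three biological replicates.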
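For solubility in G1/S (NP-40 vs SDS abundance) in this document: HeLa Kyoto cells arrested at G1/S by double thymidine block, proteins quantified by TMT10plex mass spectrometry in mild NP-40 versus SDS extracts, three biological replicates.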
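For thermal stability score vs G1/S (z-score of summed log2 fold changes over temperatures) in this document: synchronized HeLa Kyoto cells, proteins quantified by TMT10plex mass spectrometry, three biological replicates, mitosis taken 0.5 h after nocodazole release, G1/S directly after double thymidine block.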

For “MAETEALSKLREDFRMQNKSVFILGASGETGRVLLKEILEQGLFSKVTLIGRRKLTFDEEAYKNVNQEVVDFEKLDDYASAFQGHDVGFCCLGTTRGKAGAEGFVRVDRDYVLKSAELAKAGGCKHFNLLSSKGADKSSNFLYLQVKGEVEAKVEELKFDRYSVFRPGVLLCDRQESRPGEWLVRKFFGSLPDSWASGHSVPVVTVVRAMLNNVVRPRDKQMELLENKAIHDLGKAHGSLKP [HTATIP2]”, the melting temperature turned out to be 50.8 °C in the series with HeLa Kyoto [1] (cell cycle stage: G1/S) and 50.2 °C in the series on HeLa Kyoto [1] (cell cycle stage: mitosis). The “solubility in G1/S (log2)” value in the series with HeLa Kyoto [2] stood at 0.148. In addition, the “solubility change mitosis (log2)” value in the series with HeLa Kyoto [3] was -0.095. The thermal stability score in the series on HeLa Kyoto [4] (setting [5]) is 2.61; in the series on HeLa Kyoto [4] (cell cycle stage: mitosis), 4.75.

Consider “MPYVDRQNRICGFLDIEENENSGKFLRRYFILDTREDSFVWYMDNPQNLPSGSSRVGAIKLTYISKVSDATKLRPKAEFCFVMNAGMRKYFLQANDQQDLVEWVNVLNKAIKITVPKQSDSQPNSDNLSRHGECGKKQVSYRTDIVGGVPIITPTQKEEVNECGESIDRNNLKRSQSHLPYFTPKPPQDSAVIKAGYCVKQGAVMKNWKRRYFQLDENTIGYFKSELEKEPLRVIPLKEVHKVQECKQSDIMMRDNLFEIVTTSRTFYVQADSPEEMHSWIKAVSGAIVAQRGPGRSASSEHPPGPSESKHAFRPTNAATATSHSTASRSNSLVSTFTMEKRGFYESLAKVKPGNFKVQTVSPREPASKVTEQALLRPQSKNGPQEKDCDLVDLDDASLPVSDV [PLEKHA1]”, for which the melting temperature was 49.8 °C in the series on HeLa Kyoto [1] (cell cycle stage: G1/S) and 49 °C in the series with HeLa Kyoto [1] (cell cycle stage: mitosis). Moreover, in the series with HeLa Kyoto [2], the “solubility in G1/S (log2)” value was found to be 0.0285. Also, the “solubility change mitosis (log2)” value in the series on HeLa Kyoto [3] is -0.0272. Also, the thermal stability score stood at 0.0968 in the series on HeLa Kyoto [4] (setting [5]) and 0.182 in the series with HeLa Kyoto [4] (cell cycle stage: mitosis).

Regarding “MNWNKGGPGTKRGFGFGGFAISAGKKEEPKLPQQSHSAFGATSSSSGFGKSAPPQLPSFYKIGSKRANFDEENAYFEDEEEDSSNVDLPYIPAENSPTRQQFHSKPVDSDSDDDPLEAFMAEVEDQAARDMKRLEEKDKERKNVKGIRDDIEEEDDQEAYFRYMAENPTAGVVQEEEEDNLEYDSDGNPIAPTKKIIDPLPPIDHSEIDYPPFEKNFYNEHEEITNLTPQQLIDLRHKLNLRVSGAAPPRPGSSFAHFGFDEQLMHQIRKSEYTQPTPIQCQGVPVALSGRDMIGIAKTGSGKTAAFIWPMLIHIMDQKELEPGDGPIAVIVCPTRELCQQIHAECKRFGKAYNLRSVAVYGGGSMWEQAKALQEGAEIVVCTPGRLIDHVKKKATNLQRVSYLVFDEADRMFDMGFEYQVRSIASHVRPDRQTLLFSATFRKKIEKLARDILIDPIRVVQGDIGEANEDVTQIVEILHSGPSKWNWLTRRLVEFTSSGSVLLFVTKKANAEELANNLKQEGHNLGLLHGDMDQSERNKVISDFKKKDIPVLVATDVAARGLDIPSIKTVINYDVARDIDTHTHRIGRTGRAGEKGVAYTLLTPKDSNFAGDLVRNLEGANQHVSKELLDLAMQNAWFRKSRFKGGKGKKLNIGGGGLGYRERPGLGSENMDRGNNNVMSNYEAYKPSTGAMGDRLTAMKAAFQSQYKSHFVAASLSNQKAGSSAAGASGWTSAGSLNSVPTNSAQQGHNSPDSPVTSAAKGIPGFGNTGNISGAPVTYPSAGAQGVNNTASGNNSREGTGGSNGKRERYTENRGSSRHSHGETGNRHSDSPRHGDGGRHGDGYRHPESSSRHTDGHRHGENRHGGSAGRHGENRGANDGRNGESRKEAFNRESKMEPKMEPKVDSSKMDKVDSKTDKTADGFAVPEPPKRKKSRWDS [DDX42]”, the melting temperature with HeLa Kyoto [1] (cell cycle stage: G1/S) came to 47.2 °C; with HeLa Kyoto [1] (cell cycle stage: mitosis), 48.8 °C. In addition, in the series on HeLa Kyoto [2], the “solubility in G1/S (log2)” value is -0.252. Moreover, the “solubility change mitosis (log2)” value with HeLa Kyoto [3] amounted to 0.145. For the same sequence, the thermal stability score is 3.02 in the series with HeLa Kyoto [4] (setting [5]) and 7.75 in the series on HeLa Kyoto [4] (cell cycle stage: mitosis).

As to “MSGEENPASKPTPVQDVQGDGRWMSLHHRFVADSKDKEPEVVFIGDSLVQLMHQCEIWRELFSPLHALNFGIGGDGTQHVLWRLENGELEHIRPKIVVVWVGTNNHGHTAEQVTGGIKAIVQLVNERQPQARVVVLGLLPRGQHPNPLREKNRQVNELVRAALAGHPRAHFLDADPGFVHSDGTISHHDMYDYLHLSRLGYTPVCRALHSLLLRLLAQDQGQGAPLLEPAP [PAFAH1B3]”, the melting temperature with HeLa Kyoto [1] (cell cycle stage: G1/S) was 50.6 °C; in the series on HeLa Kyoto [1] (cell cycle stage: mitosis), 51 °C. Moreover, the “solubility in G1/S (log2)” value in the series on HeLa Kyoto [2] stood at 0.751. The “solubility change mitosis (log2)” value in the series with HeLa Kyoto [3] is -0.0232. The thermal stability score in the series on HeLa Kyoto [4] (setting [5]) worked out at 0.482; with HeLa Kyoto [4] (cell cycle stage: mitosis) it was 1.01.

Consider “MAANKPKGQNSLALHKVIMVGSGGVGKSALTLQFMYDEFVEDYEPTKADSYRKKVVLDGEEVQIDILDTAGQEDYAAIRDNYFRSGEGFLCVFSITEMESFAATADFREQILRVKEDENVPFLLVGNKSDLEDKRQVSVEEAKNRAEQWNVNYVETSAKTRANVDKVFFDLMREIRARKMEDSKEKNGKKKRKSLAKRIRERCCIL [RALA]”, for which the melting temperature with HeLa Kyoto [1] (cell cycle stage: G1/S) was determined as 58.9 °C; in the series on HeLa Kyoto [1] (cell cycle stage: mitosis) it was 57.4 °C. For the same sequence, the “solubility in G1/S (log2)” value with HeLa Kyoto [2] was found to be 0.0126. Further, in the series on HeLa Kyoto [3], the “solubility change mitosis (log2)” value is -0.0413. In addition, the thermal stability score with HeLa Kyoto [4] (setting [5]) was -3.71; in the series with HeLa Kyoto [4] (cell cycle stage: mitosis) it was -3.15.

Values taken from the supplement of paper PMC5998384.
